# Measurements published in patent publication US20100009923A1.
# Biological target: … (MimA2) presented by H-2D^b on peptide-pulsed RMA-S cells (mouse) (UniProt P01899)
# Test: cell-based or functional assay
# … (MimA2) presented by H-2D^b on peptide-pulsed RMA-S cells (mouse), sequence (P01899 25-362): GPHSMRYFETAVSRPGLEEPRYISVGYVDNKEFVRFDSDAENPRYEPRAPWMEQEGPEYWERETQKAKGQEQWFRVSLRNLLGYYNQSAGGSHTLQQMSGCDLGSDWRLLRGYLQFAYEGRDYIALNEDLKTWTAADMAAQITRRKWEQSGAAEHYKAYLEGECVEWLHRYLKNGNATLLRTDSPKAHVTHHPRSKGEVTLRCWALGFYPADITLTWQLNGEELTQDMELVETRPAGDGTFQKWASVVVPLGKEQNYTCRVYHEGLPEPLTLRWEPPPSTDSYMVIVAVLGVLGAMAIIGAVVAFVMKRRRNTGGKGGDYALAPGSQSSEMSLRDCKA
substance,measurement,value
TCR of the β cell-autoreactive CD8+ T cell clone AI4 (Vα8/Vβ2),"peptide concentration giving half-maximal activity in the AI4 cytotoxicity assay (51Cr release, E:T 40, RMA-S targets)",10 pM
